B1: GST-Tin2-12 (Tin2 with N-terminal deletion of aa 1-120, fused to GST) (other)
chain: LSEAPVDLASKLQELEQEYGEPFLAAMEKLLFEYLCQLEKALPTPQAQQLQDVLSWMQPGVSITSSLAWRQYGVDMGWLLPECSVTDSVNLAEPMEQNPPQQQRLALHNPLPKAKPGTHLPQGPSSRTHPEPLAGRHFNLAPLGRRRVQSQWASTRGGHKERPTVMLFPFRNLGSPTQVISNPESKEEHAIYTADLAMGTRAPSNGKYKGPYQTLGGRALKENPVDLPATEQKE
notes: not shown: GST carrier at the N end (vector pGex4X-1, Pharmacia) and its vector linker
B2: GST-Tin2-15 (N-terminal fragment aa 1-196 of Tin2, fused to GST) (other)
chain: MATPLVAGPAALRFAAAASWQVVRGRCVEHFPRVLEFLRSLRAVAPGLVRYRHHERLCMGLKAKVVVELILQGRPWAQVLKALNHHFPESGPIVRDPKATKQDLRKILEAQETFYQQVKQLSEAPVDLASKLQELEQEYGEPFLAAMEKLLFEYLCQLEKALPTPQAQQLQDVLSWMQPGVSITSSLAWRQYGVDM
notes: not shown: glutathione-S-transferase (GST) encoded by vector pGex4X-1 (Pharmacia)
B3: GST-Tin2 (wild-type Tin2 with glutathione-S-transferase linked to the N-terminus) (other)
chain: MATPLVAGPAALRFAAAASWQVVRGRCVEHFPRVLEFLRSLRAVAPGLVRYRHHERLCMGLKAKVVVELILQGRPWAQVLKALNHHFPESGPIVRDPKATKQDLRKILEAQETFYQQVKQLSEAPVDLASKLQELEQEYGEPFLAAMEKLLFEYLCQLEKALPTPQAQQLQDVLSWMQPGVSITSSLAWRQYGVDMGWLLPECSVTDSVNLAEPMEQNPPQQQRLALHNPLPKAKPGTHLPQGPSSRTHPEPLAGRHFNLAPLGRRRVQSQWASTRGGHKERPTVMLFPFRNLGSPTQVISNPESKEEHAIYTADLAMGTRAPSNGKYKGPYQTLGGRALKENPVDLPATEQKE
notes: also called Wild-type GST-Tin2; WT GST-Tin2; not shown: glutathione-S-transferase (GST) encoded by vector pGex4X-1 (Pharmacia), linked to the N-terminus; linker residues not gi
B4: Myc-Tin2 (Tin2 with a 13 aa c-Myc epitope at the N-terminus) (other, not shown: small tags and cut ends)
chain: B3 chain
notes: Made by in vitro translation (rabbit reticulocyte lysate, 35S-methionine) or expressed in HT1080 cells from a retrovirus
B5: GST-Tin2-14 (Tin2 with C-terminal deletion of aa 276-354, fused to GST) (other)
chain: MATPLVAGPAALRFAAAASWQVVRGRCVEHFPRVLEFLRSLRAVAPGLVRYRHHERLCMGLKAKVVVELILQGRPWAQVLKALNHHFPESGPIVRDPKATKQDLRKILEAQETFYQQVKQLSEAPVDLASKLQELEQEYGEPFLAAMEKLLFEYLCQLEKALPTPQAQQLQDVLSWMQPGVSITSSLAWRQYGVDMGWLLPECSVTDSVNLAEPMEQNPPQQQRLALHNPLPKAKPGTHLPQGPSSRTHPEPLAGRHFNLAPLGRRRVQSQWAST
notes: as for B1
B6: [TTAGGG]13 double-stranded telomeric probe (dsDNA)
DNA 1: TTAGGGTTAGGGTTAGGGTTAGGGTTAGGGTTAGGGTTAGGGTTAGGGTTAGGGTTAGGGTTAGGGTTAGGGTTAGGG
DNA 2: CCCTAACCCTAACCCTAACCCTAACCCTAACCCTAACCCTAACCCTAACCCTAACCCTAACCCTAACCCTAACCCTAA
B7: [TTAGGG]6 probes with flanks (6X-Tel 178 bp, Bi-6X-Tel 126 bp) (dsDNA)
DNA 1: TTAGGGTTAGGGTTAGGGTTAGGGTTAGGGTTAGGG
DNA 2: CCCTAACCCTAACCCTAACCCTAACCCTAACCCTAA

Columns and labels:
[1] = molecular target: T1, HA-Trf1 (Trf1 with a 10 aa hemagglutinin epitope at the N-terminus) (human, UniProt P54274 1-439); assay: EMSA with nuclear extract of HA-Trf1 expressing cells and telomeric DNA probe
T1 construct: In vitro translated (major 60 kD and minor about 40 kD products), or expressed in HT1080 cells
T1 sequence (looked up): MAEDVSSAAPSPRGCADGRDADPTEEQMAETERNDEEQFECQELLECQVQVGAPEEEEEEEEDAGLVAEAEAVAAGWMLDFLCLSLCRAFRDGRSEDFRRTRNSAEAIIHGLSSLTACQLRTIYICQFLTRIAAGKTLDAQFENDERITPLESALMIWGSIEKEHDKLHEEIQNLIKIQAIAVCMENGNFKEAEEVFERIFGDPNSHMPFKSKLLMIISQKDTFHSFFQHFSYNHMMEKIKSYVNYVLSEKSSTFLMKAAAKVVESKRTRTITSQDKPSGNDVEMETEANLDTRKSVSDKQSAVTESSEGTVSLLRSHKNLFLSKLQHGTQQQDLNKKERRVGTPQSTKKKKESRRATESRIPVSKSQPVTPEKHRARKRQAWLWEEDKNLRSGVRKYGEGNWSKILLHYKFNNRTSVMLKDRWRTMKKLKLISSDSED

[2] = molecular target: B4; assay: co-immunoprecipitation with anti-GST of in vitro translated radiolabeled protein, SDS-PAGE
[3] = molecular target: T2, HA-tagged hTERT protein (human telomerase catalytic subunit) (human, UniProt O14746 1-1132); assay: co-immunoprecipitation from cells
T2 construct: Transiently expressed in Myc-Tin2-expressing cells; not shown: HA tag

[4] = molecular target: T1, HA-Trf1 (Trf1 with a 10 aa …); assay: co-immunoprecipitation of mixed in vitro translation products, SDS-PAGE
[5] = molecular target: Trf1 (HA-Trf1, in vitro translated) (human, UniProt P54274 P54274:1-439); assay: EMSA; specific protein-DNA complex TT
Description: (§1) Nuclear extracts were prepared as described (Dimri et al., 1994), and dialyzed against 20 mM HEPES, pH 7.9, 100 mM KCl, 0.5 mM DTT, 0.5 mM PMSF. [TTAGGG]_6 and $[TTAGGG]13$ in pBluescript were excised, labeled using Klenow or PCR and gel purified. EMSA was performed as described (Zhong et al., 1992) in 20 ul containing 0–20 ug GST or GST-fusion proteins, 6–8 ug nuclear extract protein or 5 ul in vitro translation reaction, using a 30 min incubation at room temperature and 5% PAGE run with 1× Tris-borate-EDTA buffer.
This was true whether Tin2 was translated in vitro, purified from *E. coli* as a GST-fusion protein, or purified from baculovirus infected insect cells as a 6-histidine (6his)-tagged protein. […] In contrast, Trf1, whether translated in vitro or in nuclear extracts from HA-Trf1 overexpressing cells, formed a specific protein-DNA complex (Chong et al., 1995). Since Trf1 binds DNA as a homodimer (Bianchi et al., 1997), this complex was designated TT. To determine whether Tin2 interacts with this complex, WT or mutant GST-Tin2 proteins were added to nuclear extracts from HA-Trf1 expressing cells.

Trf1 + Tin2 complex [6] = molecular target: T3, Trf1 + Tin2 complex (human, UniProt P54274;Q9BSI4-2 P54274:1-439,Q9BSI4-2:1-354); assay: EMSA; all TT shifted to TT-AAX; nuclear extract slightly enhances; conditions: tags: 6his on both, baculovirus/Sf9; chain copies: 2 Trf1 + 2 Tin2 in TT-AA (stated as likely)
Description: as §1
(§2) To determine the nature of TT-AAX, DNA complexes formed by purified proteins were examined. 6his-tagged Trf1 and Tin2 were produced and purified from baculovirus-infected cells. […] Moreover, 6his-Tin2, added in increasing amounts to 6his-Trf1 and probe, shifted all the TT to TT-AAX . Since 6his-Tin2 formed more TT-AAX than GST-Tin2, the GST moiety may reduce TT-AAX formation or stability. Nuclear extract had only a small effect on TT-AAX formation. […] Addition of 6his-Trf1 produced TT, and 6his-Tin2 shifted all the TT to TT-AAX. However, somewhat more TT-AAX was formed in the presence of nuclear extract than its absence. Thus, TT-AAX required only Trf1, Tin2 and telomeric DNA, but other nuclear proteins might enhance its formation or stability.

Trf1 (6his-Trf1) [7] = molecular target: T4, Trf1 (6his-Trf1) (human, UniProt P54274 P54274:1-439); assay: EMSA; single TT complex; probe not restated, taken as [TTAGGG]13; conditions: tags: 6his, baculovirus/Sf9; chain copies: 2 (homodimer, stated)
Description: as §1, §2

Trf1 (6his-Trf1) [8] = molecular target: T4, Trf1 (6his-Trf1); assay: EMSA; TT plus minor TT**, TT*** and small amount of TT-AAX; Trf1 alone induces probe-probe pairing; conditions: tags: 6his, baculovirus/Sf9; chain copies: 2 (homodimer, stated); label: 32P (6X-Tel); 5' biotin (Bi-6X-Tel)
Description: (§3) 6his-Trf1 (150 ng) and increasing amounts of 6his-Tin2 were incubated with a double stranded TTAGGG_6 probe, and protein-DNA complexes were analyzed by EMSA. Probes containing [TTAGGG]_6 and flanking sequences were synthesized by PCR. 6X-Tel was 178 bp, and labeled with ^32P (*). Bi-6X-Tel was 126 bp, biotinylated at a 5' end, and either labeled (*) or unlabeled. The 6X-Tel probe was incubated with labeled or unlabeled Bi-6X-Tel probe, and 6his-Trf1 (150 ng), 6his-Tin2 (60 ng), GST (100 ng), GST-Tin2–13 (100 ng) and/or 100 fold excess unlabeled [TTAGGG]_7, followed by incubation with streptavidin-agarose beads. The beads were collected, and components released and analyzed by PAGE. Signals were quantified using a phosphorimager and ImageQuant. Reaction mixtures were analyzed by EMSA.
Under these optimized conditions, Trf1 alone formed a small amount of TT-AAX which was greatly stimulated by Tin2. Also under these conditions, Trf1 alone formed two minor complexes that are likely due to two (TT) and three (TT*) Trf1 homodimers loaded onto the probe (Bianchi et al., 1997). The Tin2–13 mutant supershifted all three TT complexes, as expected from its ability to bind Tfr1.

Trf1 + Tin2 complex [9] = molecular target: T3, Trf1 + Tin2 complex; assay: pulldown; probe pairing (6X-Tel/labeled Bi-6X-Tel) over Trf1 alone; 4-5 fold with unlabeled Bi-6X-Tel; abolished by excess unlabeled [TTAGGG]7; conditions: tags: 6his on both, baculovirus/Sf9; chain copies: 2 Trf1 + 2 Tin2 in TT-AA (stated as likely); label: 32P (6X-Tel); 5' biotin (Bi-6X-Tel)
Description: The 178 bp probe (6X-Tel) and the 126 bp probe (Bi-6X-Tel) were used either labeled or unlabeled. The probes were mixed together, incubated with purified 6his-proteins under optimized conditions, and Bi-6X-Tel probes were collected on streptavidin-agarose beads, as described below. […] Released labeled probes were identified by PAGE.
as §3
In the absence of protein or presence of Tin 2 alone, virtually no 6X-Tel probe, and very little labeled Bi-6X-Tel was released. […] Trf1 alone increased the amount of both 6X-Tel and labeled Bi-6X-Tel that were released. […]

T2 sequence (O14746 whole entry): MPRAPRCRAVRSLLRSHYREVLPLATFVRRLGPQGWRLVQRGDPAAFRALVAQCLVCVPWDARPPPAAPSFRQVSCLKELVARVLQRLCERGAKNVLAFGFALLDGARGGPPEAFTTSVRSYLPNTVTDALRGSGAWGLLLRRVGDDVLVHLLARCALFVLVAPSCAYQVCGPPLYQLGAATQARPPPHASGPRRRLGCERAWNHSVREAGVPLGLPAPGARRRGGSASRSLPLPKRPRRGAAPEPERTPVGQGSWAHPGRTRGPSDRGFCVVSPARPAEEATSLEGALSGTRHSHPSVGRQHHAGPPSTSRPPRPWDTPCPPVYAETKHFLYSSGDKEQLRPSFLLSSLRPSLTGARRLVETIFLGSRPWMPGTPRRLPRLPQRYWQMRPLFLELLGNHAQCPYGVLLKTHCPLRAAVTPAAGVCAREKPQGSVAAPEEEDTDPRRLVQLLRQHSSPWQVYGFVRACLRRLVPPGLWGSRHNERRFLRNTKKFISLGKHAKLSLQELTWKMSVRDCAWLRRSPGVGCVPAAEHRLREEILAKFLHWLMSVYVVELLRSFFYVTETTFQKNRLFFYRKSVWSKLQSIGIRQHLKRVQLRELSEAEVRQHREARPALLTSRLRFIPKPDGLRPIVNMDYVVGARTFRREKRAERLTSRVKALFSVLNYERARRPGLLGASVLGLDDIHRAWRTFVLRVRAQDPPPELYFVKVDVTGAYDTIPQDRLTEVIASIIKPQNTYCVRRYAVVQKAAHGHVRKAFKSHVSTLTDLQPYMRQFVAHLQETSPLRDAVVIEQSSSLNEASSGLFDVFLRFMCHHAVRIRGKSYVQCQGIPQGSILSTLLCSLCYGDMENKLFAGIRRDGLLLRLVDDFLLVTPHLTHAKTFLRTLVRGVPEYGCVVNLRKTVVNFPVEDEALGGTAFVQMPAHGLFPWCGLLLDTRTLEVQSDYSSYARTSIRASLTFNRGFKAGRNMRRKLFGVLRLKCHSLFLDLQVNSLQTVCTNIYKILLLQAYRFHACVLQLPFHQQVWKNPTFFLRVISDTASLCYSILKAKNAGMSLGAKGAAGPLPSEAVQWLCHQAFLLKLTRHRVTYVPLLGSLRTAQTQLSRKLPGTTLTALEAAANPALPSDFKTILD

B1
binding result [1]: binds

B2
binding result [1]: no binding

B3
binding result [2]: no binding
binding result [1]: binds

B4
binding result [3]: no binding
binding result [4]: binds

B5
binding result [1]: binds

B6
binding result [5]: binds
binding result (Trf1 + Tin2 complex [6]): binds
binding result (Trf1 (6his-Trf1) [7]): binds

B7
binding result (Trf1 (6his-Trf1) [8]): binds
binding result (Trf1 + Tin2 complex [9]): binds

— US6409648, “Polynucleotides encoding TRF1 binding proteins” (The Regents of the University of California)
